Publication PMC11612273 (2024)

T1: GST-BRAKJK (tomato (Solanum lycopersicum), labeled with RED-NHS)
T1 chain: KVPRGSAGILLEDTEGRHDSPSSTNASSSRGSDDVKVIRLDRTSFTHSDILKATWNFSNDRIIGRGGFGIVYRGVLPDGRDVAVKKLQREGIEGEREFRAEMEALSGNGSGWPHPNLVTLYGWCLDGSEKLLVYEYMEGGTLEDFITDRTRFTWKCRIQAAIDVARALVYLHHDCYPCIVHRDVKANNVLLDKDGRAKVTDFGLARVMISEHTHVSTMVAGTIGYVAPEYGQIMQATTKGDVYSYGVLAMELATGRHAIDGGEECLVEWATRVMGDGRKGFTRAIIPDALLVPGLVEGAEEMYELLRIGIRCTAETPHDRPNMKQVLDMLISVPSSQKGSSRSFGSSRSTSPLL

T2: GST-PSKR1JK (tomato (Solanum lycopersicum), UniProt A0A3Q7E8N4 1-1013, labeled with RED-NHS)
T2 chain: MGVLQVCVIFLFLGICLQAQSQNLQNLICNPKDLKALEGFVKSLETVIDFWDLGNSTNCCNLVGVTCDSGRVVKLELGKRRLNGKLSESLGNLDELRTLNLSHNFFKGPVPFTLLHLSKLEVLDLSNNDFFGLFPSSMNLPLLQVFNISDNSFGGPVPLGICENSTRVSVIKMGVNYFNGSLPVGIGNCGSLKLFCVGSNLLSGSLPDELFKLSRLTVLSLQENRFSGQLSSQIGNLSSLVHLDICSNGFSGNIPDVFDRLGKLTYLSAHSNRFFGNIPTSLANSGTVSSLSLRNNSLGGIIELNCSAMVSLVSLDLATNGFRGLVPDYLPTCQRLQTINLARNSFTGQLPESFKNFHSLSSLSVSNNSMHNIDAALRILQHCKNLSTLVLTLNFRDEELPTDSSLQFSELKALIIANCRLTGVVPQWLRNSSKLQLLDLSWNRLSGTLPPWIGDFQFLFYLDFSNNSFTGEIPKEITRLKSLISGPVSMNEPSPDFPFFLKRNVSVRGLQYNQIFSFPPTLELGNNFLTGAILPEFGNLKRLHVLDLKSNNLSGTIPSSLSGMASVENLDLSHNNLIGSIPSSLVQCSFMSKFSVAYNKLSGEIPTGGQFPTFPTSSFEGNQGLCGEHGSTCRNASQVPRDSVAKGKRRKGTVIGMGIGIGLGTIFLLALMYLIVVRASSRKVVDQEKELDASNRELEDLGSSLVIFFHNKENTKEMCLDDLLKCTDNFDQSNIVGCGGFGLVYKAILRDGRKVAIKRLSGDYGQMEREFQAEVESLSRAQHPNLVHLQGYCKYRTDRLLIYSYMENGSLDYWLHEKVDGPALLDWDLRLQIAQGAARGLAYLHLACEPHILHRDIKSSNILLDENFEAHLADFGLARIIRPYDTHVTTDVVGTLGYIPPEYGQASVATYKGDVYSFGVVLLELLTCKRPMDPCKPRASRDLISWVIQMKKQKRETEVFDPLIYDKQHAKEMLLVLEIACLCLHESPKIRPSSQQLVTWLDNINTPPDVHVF


Target: T1, GST-BRAKJK
Test: MST

Row | Binder | Kd
1 | PSKR1JK^Y843F (phospho-mutated) (domain or fragment) VRASSRKVVDQEKELDASNRELEDLGSSLVIFFHNKENTKEMCLDDLLKCTDNFDQSNIVGCGGFGLVYKAILRDGRKVAIKRLSGDYGQMEREFQAEVESLSRAQHPNLVHLQGYCKYRTDRLLIYSYMENGSLDYWLHEKVDGPALLDWDLRLQIAQGAARGLAFLHLACEPHILHRDIKSSNILLDENFEAHLADFGLARIIRPYDTHVTTDVVGTLGYIPPEYGQASVATYKGDVYSFGVVLLELLTCKRPMDPCKPRASRDLISWVIQMKKQKRETEVFDPLIYDKQHAKEMLLVLEIACLCLHESPKIRPSSQQLVTWLDNINTPPDVHVF | 1800 nM
2 | PSKR1JK, wild type (ligand of the MST) (domain or fragment) VRASSRKVVDQEKELDASNRELEDLGSSLVIFFHNKENTKEMCLDDLLKCTDNFDQSNIVGCGGFGLVYKAILRDGRKVAIKRLSGDYGQMEREFQAEVESLSRAQHPNLVHLQGYCKYRTDRLLIYSYMENGSLDYWLHEKVDGPALLDWDLRLQIAQGAARGLAYLHLACEPHILHRDIKSSNILLDENFEAHLADFGLARIIRPYDTHVTTDVVGTLGYIPPEYGQASVATYKGDVYSFGVVLLELLTCKRPMDPCKPRASRDLISWVIQMKKQKRETEVFDPLIYDKQHAKEMLLVLEIACLCLHESPKIRPSSQQLVTWLDNINTPPDVHVF | 171 nM
3 | PSKR1JK^T890A (phospho-mutated) (domain or fragment) VRASSRKVVDQEKELDASNRELEDLGSSLVIFFHNKENTKEMCLDDLLKCTDNFDQSNIVGCGGFGLVYKAILRDGRKVAIKRLSGDYGQMEREFQAEVESLSRAQHPNLVHLQGYCKYRTDRLLIYSYMENGSLDYWLHEKVDGPALLDWDLRLQIAQGAARGLAYLHLACEPHILHRDIKSSNILLDENFEAHLADFGLARIIRPYDTHVTADVVGTLGYIPPEYGQASVATYKGDVYSFGVVLLELLTCKRPMDPCKPRASRDLISWVIQMKKQKRETEVFDPLIYDKQHAKEMLLVLEIACLCLHESPKIRPSSQQLVTWLDNINTPPDVHVF | 2270 nM

Target: T2, GST-PSKR1JK
Test: MST

Row | Binder | Kd
4 | BRAKJK, wild type (ligand of the MST) (domain or fragment) MPGRLVCGDSIETDKQLLLNLKSFLKEQNPVDKGFKYNHWNPTDLSPCRWPGISCTTSINRVTGIDLSESNLAGKLFNNFSAMTELNSLDLSKNTFSESIPSDLGWCRNLKFLNLSHNIIVGDLNLTGLNKLEVLDLTMNRIHGLTIPEICDNLAVANISNNNFTSESGFEFSHCKKLKYLDLSYNYLTGNLSFGLDMLNMFSASHNNLSGSLPSWIFTQNCSLQGLDLSENRFFGELPTSIANCKRLVELNLWGNSFSGSIPRGIGSVHSLKELCLGSNNFSSDVPDTLSGLNKLVFLDLSRNNFGGEIQEIFGQLTQVRFLVLHGNSYTGGIVSSGIPNLVNLSRLDLSDNHFSGPLPVEISEMKGLEFLILAHNQFSGNIPSEYGDLTALQAVDLSSNRINGSIPPSFGKLRSLLWLMLANNSLSGEIPSELGNCSSLLWLNLANNQLTGPIPPQLASIGADPMLTFLLNRGKEKLTASPGDCFAMRRWIPADYPPFSFIYPLLTGKSCRILGDKLFMGDGLMPLCEPGSNVRKNQVPGYIQLSDNKLSGEIPPEISNMKKMSMMHLGANEFSGRLPSEIGQLHLVVLNVSQNKFSGEIPKQIGHLKCLLNLDLSFNNFSGPFPVSFSNLHDLSKFNISYNQYIYGAVPETGQLLTFDKSSFLGNPLLRLPSFMHNSKNNTERNTNDTHKKPKKVGALLVIVVLVLAFLVCGVMSLVVCLLIKVPRGSAGILLEDTEGRHDSPSSTNASSSRGSDDVKVIRLDRTSFTHSDILKATWNFSNDRIIGRGGFGIVYRGVLPDGRDVAVKKLQREGIEGEREFRAEMEALSGNGSGWPHPNLVTLYGWCLDGSEKLLVYEYMEGGTLEDFITDRTRFTWKCRIQAAIDVARALVYLHHDCYPCIVHRDVKANNVLLDKDGRAKVTDFGLARVMISEHTHVSTMVAGTIGYVAPEYGQIMQATTKGDVYSYGVLAMELATGRHAIDGGEECLVEWATRVMGDGRKGFTRAIIPDALLVPGLVEGAEEMYELLRIGIRCTAETPHDRPNMKQVLDMLISVPSSQKGSSRSFGSSRSTSPLL | 196 nM
5 | BRAKJK^Y1048F (phospho-dead) (domain or fragment) KVPRGSAGILLEDTEGRHDSPSSTNASSSRGSDDVKVIRLDRTSFTHSDILKATWNFSNDRIIGRGGFGIVYRGVLPDGRDVAVKKLQREGIEGEREFRAEMEALSGNGSGWPHPNLVTLYGWCLDGSEKLLVYEYMEGGTLEDFITDRTRFTWKCRIQAAIDVARALVYLHHDCYPCIVHRDVKANNVLLDKDGRAKVTDFGLARVMISEHTHVSTMVAGTIGYVAPEYGQIMQATTKGDVYSYGVLAMELATGRHAIDGGEECLVEWATRVMGDGRKGFTRAIIPDALLVPGLVEGAEEMFELLRIGIRCTAETPHDRPNMKQVLDMLISVPSSQKGSSRSFGSSRSTSPLL | 6900 nM
6 | BRAKJK^T1027A (phospho-dead; printed BRAKJK^T1024A in the results) (domain or fragment) KVPRGSAGILLEDTEGRHDSPSSTNASSSRGSDDVKVIRLDRTSFTHSDILKATWNFSNDRIIGRGGFGIVYRGVLPDGRDVAVKKLQREGIEGEREFRAEMEALSGNGSGWPHPNLVTLYGWCLDGSEKLLVYEYMEGGTLEDFITDRTRFTWKCRIQAAIDVARALVYLHHDCYPCIVHRDVKANNVLLDKDGRAKVTDFGLARVMISEHTHVSTMVAGTIGYVAPEYGQIMQATTKGDVYSYGVLAMELATGRHAIDGGEECLVEWATRVMGDGRKGFARAIIPDALLVPGLVEGAEEMYELLRIGIRCTAETPHDRPNMKQVLDMLISVPSSQKGSSRSFGSSRSTSPLL | 2430 nM
